Measured values reported in publication doi:10.1101/2022.08.17.504349.

Target: RGA5-HMA5 labeled with NT-647 (MST) (rice) (UniProt F7J0N2)
Experiment: MST

AVR-PikD, recombinant (MST and HDX-MS) (natural protein)
Kd: 12 µM
